One experiment addresses Ab0785. The experiment in a line: BLI +indinavir.
Experiment [1] deals with Ab0786. Put plainly: BLI 5-pt +indinavir.
Experiment [2] addresses Ab0787. The experiment in a line: BLI 5-pt +indinavir.
The target of experiment [3] is Ab0786. Put plainly: BLI 1-pt +indinavir.
Experiment [4] addresses Ab0787. Put plainly: BLI 1-pt +indinavir.
Experiment [5] addresses Ab0223. Put plainly: BLI 3-pt +indinavir.
Experiment [6] addresses Ab0223. Put plainly: BLI 5-pt +indinavir.
In experiment [7] the target is Ab0223. The experiment in a line: BLI 5-pt +indinavir. This is another data set of the same source.
The next experiment addresses Ab0670. The experiment in a line: 5-pt kinetics.
The target of experiment [8] is T1, huEpCAM ECD Ag0065 (human) (UniProt P16422).
T1 sequence: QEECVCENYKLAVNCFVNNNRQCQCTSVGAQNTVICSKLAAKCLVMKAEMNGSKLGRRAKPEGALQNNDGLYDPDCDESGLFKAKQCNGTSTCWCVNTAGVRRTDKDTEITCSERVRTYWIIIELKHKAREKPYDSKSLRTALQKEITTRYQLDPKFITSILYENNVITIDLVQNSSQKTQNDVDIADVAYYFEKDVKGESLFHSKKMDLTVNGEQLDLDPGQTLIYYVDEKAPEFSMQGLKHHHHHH
The experiment in a line: SPR single-cycle.

Experiment [9] concerns the target cyEpCAM ECD Ag0066 (cyno). Put plainly: SPR single-cycle.
Experiment [10] deals with T1, huEpCAM ECD Ag0065 (human). Put plainly: SPR multi-cycle.
The target in experiment [11] is cyEpCAM ECD Ag0066 (cyno). The experiment in a line: SPR multi-cycle.

Positions count from the first letter of the chain named.

B1: Ab1071 (Fab, V domains shown)
VH: EVQLVESGGGLVQPGGSLRLSCAASGFDFSSYSIHWVRQAPGKGLEWVASISPYYGSTYYADSVKGRFTISADTSKNTAYLQMNSLRAEDTAVYYCARYYEWYKYDLYAGSLGFDYWGQGTLVTVSS
VL: DIQMTQSPSSLSASVGDRVTITCRASQSVSSAVAWYQQKPGKAPKLLIYSASSLYSGVPSRFSGSRSGTDFTLTISSLQPEDFATYYCQQGGYSLITFGQGTKVEIK
B1 came in with a Kd in the experiment with Ab0785 of 2.4 nM.

B2: Ab1044 (antibody, V domains shown)
VH: B1 VH with S50A
VL: B1 VL
In the case of B2, the equilibrium dissociation constant (Kd) with Ab0786 [1] is 8.6 nM; in the experiment with Ab0787 [2], 2.3 nM; with Ab0786 [3], 8.2 nM; with Ab0787 [4] it was 5.1 nM.

B3: Ab0706 (antibody, V domains shown)
VH: B1 VH with D106S, Y108N, A109L
VL: B1 VL
For B3, the dissociation constant (Kd) with Ab0223 [5] is 89 nM.

B4: Ab0707 (antibody, V domains shown)
VH: B1 VH with D106S, Y108D, A109L
VL: B1 VL
With B4, the dissociation constant (Kd) with Ab0223 [5] was found to be 72 nM. This Kd and that of the molecule before are within 1.5-fold of each other.

B5: Ab1047 (antibody, V domains shown)
VH: B1 VH with S50A, Y59A, Y99A
VL: B1 VL
As for B5, in the experiment with Ab0787 [4], the Kd was found to be 47 nM.

B6: Ab0637 (antibody, V domains shown)
VH: B1 VH with D106S, A109L
VL: B1 VL
As for B6, the values for the Kd with Ab0223 [6], with Ab0223 [7] and with Ab0223 [5] were 3.7 nM, 5.9 nM and 5.4 nM, respectively.

B7: Ab0785 (Fab, V domains shown)
VH: QVQLVQSGAEVKKPGASVKVSCKASGYTFTSYWMHWVRQHPGQGLEWMGIIHPNSGGTSYAQKFQGRVTMTRDTSTSTVYMELSSLRSEDTAVYYCAMGDYVSRDYWGQGTLVTVSS
VL: EIVLTQSPGTLSLSPGERATLSCRASSSVSSSYLHWYQQKPGQAPRLLIYSTSSRATGIPDRFSGSGSGTDFTLTISRLEPEDFAVYYCQQYSGYQFTFGQGTKLEIK
modifications: chain 1 pos 246: the Lys of the Avi-tag is biotinylated where biotinylated-Ab0785 was captured on streptavidin sensors; written K
On to B7, for which the Kd with Ab0670 came to 29 nM.

B8: Ab0788 (Fab, V domains shown)
VH: B7 VH with S59N
VL: B7 VL
In the experiment with Ab0670, B8 displayed a Kd of 86 nM.

B9: Ab1018 (antibody, V domains shown)
VH: EVQLVESGGGLVQPGGSLRLSCAASGFTFSNYWMNWVRQAPGKGLEWVAQIRVKSENFATHYADSVKGRFTISRDDSKSTVYLQMNSLRAEDTAVYYCTLYEGFSWGQGTLVTVSS
VL: DIQMTQSPSSLSASVGDRVTITCSASSSVSSGNFHWYQQKPGKAPKLLIYRTSNLASGVPSRFSGSGSGTDYTLTISSLQPEDFATYYCQQWSGYPYTFGQGTKVEIK
B9: the dissociation constant (Kd) came to 3 nM in experiment [8], 2.1 nM in [9], 2.8 nM in experiment [10] and 1.6 nM in [11].

B10: Ab1024 (antibody, V domains shown)
VH: B9 VH with A63V, E102D
VL: B9 VL
Take B10: the Kd in experiment [8] is 2.3 nM; in experiment [9], 2 nM; in experiment [10], 1.6 nM; in experiment [11] it was 0.94 nM.

B11: Ab1019 (antibody, V domains shown)
VH: B9 VH with E102D, G103A
VL: B9 VL
With B11, the dissociation constant (Kd) in [8] came to 2.5 nM; in [9], 2 nM; in [10], 1.8 nM; in experiment [11] it was 1.1 nM.

Broadly, the Kd is a measure of binding affinity in units of concentration. A higher Kd goes with lower affinity.

For the origin of these results see patent US20240190987A1, “Engineered EpCam Binding Antibodies” (TigaTX, priority 2021, published 2024).
